For one experiment, the target named is T1, HLA-A*24.
T1 construct: Monomers captured on streptavidin plates; also called peptide-receptive MHC molecules; MHC complexes
The experiment is described as follows: UV peptide-exchange ELISA (anti-b2m); yield grade +++ = >50. An excerpt:
(§1) Candidate peptides for T cell based therapies according to the present invention were further tested for their MHC binding capacity (affinity). The individual peptide-MHC complexes were produced by UV-ligand exchange, where a UV-sensitive peptide is cleaved upon UV-irradiation, and exchanged with the peptide of interest as analyzed. Only peptide candidates that can effectively bind and stabilize the peptide-receptive MHC molecules prevent dissociation of the MHC complexes. To determine the yield of the exchange reaction, an ELISA was performed based on the detection of the light chain (p2m) of stabilized MHC complexes. The assay was performed as generally described in Rodenko et al. (Rodenko et al., 2006)
(§2) 96 well MAXISorp plates (NUNC) were coated over night with 2 ug/ml streptavidin in PBS at room temperature, washed 4× and blocked for 1 h at 37° C. in 2% BSA containing blocking buffer. Refolded HLA-A*02:01/MLA-001 monomers served as standards, covering the range of 15-500 ng/ml. Peptide-MHC monomers of the UV-exchange reaction were diluted 100-fold in blocking buffer. Samples were incubated for 1 h at 37° C., washed four times, incubated with 2 ug/ml HRP conjugated anti-β2m for 1h at 37° C., washed again and detected with TMB solution that is stopped with […]. Absorption was measured at 450 nm. Candidate peptides that show a high exchange yield (preferably higher than 50%, most preferred higher than 75%) are generally preferred for a generation and production of antibodies or fragments thereof, and/or T cell receptors or fragments thereof, as they show sufficient avidity to the MHC molecules and prevent dissociation of the MHC complexes.
In general terms: An ELISA detects its analyte on a solid surface through an enzyme-linked reagent.
Turning to IYPDSIQEL (also called IYPDSIQEL) [LOC-019], the peptide exchange yield lay within 50 to 75%.

Molecule TDWSPPPVEF (also called TDWSPPPVEF) [FAM178B-001] had a peptide exchange yield of 50 to 75%. For the molecule VCWNPFNNTF (also called VCWNPFNNTF) [RNF183-001], the peptide exchange yield fell in the range of 50 to 75%. Turning to SLWREVVTF (also called SLWREVVTF) [CEP250-004], the peptide exchange yield fell in the range of 50 to 75%. Same read-out and setting: with LHLYCLNTF (also called LHLYCLNTF) [PGR-003] the figure was 50 to 75%. Molecule NAFEAPLTF (also called NAFEAPLTF) [BRCA2-004] showed a peptide exchange yield of 50 to 75%. RYKMLIPF (also called RYKMLIPF) [NLRP2-010] displayed a peptide exchange yield of 50 to 75%. Regarding RIFTARLYF (also called RIFTARLYF) [AICD-001], the peptide exchange yield was in the range of 50 to 75%.

In turn, QYPEFSIEL (also called QYPEFSIEL) [TGM4-001] returned a peptide exchange yield of 50 to 75%. With KQMQEFFGL (also called KQMQEFFGL) [MMP1-010], the peptide exchange yield lay within 50 to 75%. Take RYLIIKYPF (also called RYLIIKYPF) [SUCN-003]: the peptide exchange yield was in the range of 50 to 75%. With QHMLPFWTDL (also called QHMLPFWTDL) [NLRP2-009], the peptide exchange yield is 50 to 75%. Consider VYEHNHVSL (also called VYEHNHVSL) [BTBD16-006], for which the peptide exchange yield was in the range of 50 to 75%. Turning to VGGNVTSNF (also called VGGNVTSNF) [CT45-004], the peptide exchange yield is 50 to 75%. VGGNVTSSF (also called VGGNVTSSF) [CT45-005] returned a peptide exchange yield of 50 to 75%. Regarding EYSLPVLTF (also called EYSLPVLTF) [PTP-037], the peptide exchange yield fell in the range of 50 to 75%.

LFQRVSSVSF (also called LFQRVSSVSF) [HMCN1-010] came in with a peptide exchange yield of 50 to 75%. FLPALYSLL (also called FLPALYSLL) [CXCR3-001] yielded a peptide exchange yield of 50 to 75%. As to SYQEAIQQL (also called SYQEAIQQL) [NEFH-003], the peptide exchange yield is 50 to 75%. As to MDQNQVVWTF (also called MDQNQVVWTF) [ROS-008], the peptide exchange yield lay within 50 to 75%. As to RLGEFVLLF (also called RLGEFVLLF) [TGM6-001], the peptide exchange yield lay within 50 to 75%. The same measure, in the same setting: under RILTEFELL (also called RILTEFELL) [TRIM31-001] stands 50 to 75%; under SYVLQIVAI (also called SYVLQIVAI) [PTP-041], 50 to 75%; under YFDENIQKF (also called YFDENIQKF) [HEPHL-006], 50 to 75%. For FYIVTRPLAF (also called FYIVTRPLAF) [SUCN-002], the peptide exchange yield lay within 50 to 75%. KVWSDVTPLTF (also called KVWSDVTPLTF) [MMP11-023] had a peptide exchange yield of 50 to 75%.

In turn, KDLMKAYLF (also called KDLMKAYLF) [TXNDC16-006] had a peptide exchange yield of 50 to 75%. Consider IYFNHRCF (also called IYFNHRCF) [SFMBT1-001], for which the peptide exchange yield fell in the range of 50 to 75%. With ISMSATEFLL (also called ISMSATEFLL) [CYP1A1-001], the peptide exchange yield fell in the range of 50 to 75%. As to IWAERIMF (also called IWAERIMF) [TDRD1-001], the peptide exchange yield fell in the range of 50 to 75%. As for LSCTATPLF (also called LSCTATPLF) [KHDC1L-001], the peptide exchange yield is 50 to 75%.

The target of the next experiment is T1, HLA-A*24. The experiment is described as follows: UV peptide-exchange ELISA (anti-b2m); yield grade + = >10%.
Description: as §1, §2
Regarding SYIVDGKII (also called SYIVDGKII) [PSG9-001], the peptide exchange yield lay within 10 to 20%. With RVHANPLLI (also called RVHANPLLI) [APOB-081], the peptide exchange yield was in the range of 10 to 20%. As for KQHAWLPLTI (also called KQHAWLPLTI) [TCL1A-003], the peptide exchange yield is 10 to 20%.

As for IYPHGVTFSP (also called IYPHGVTFSP) [F5-004], the peptide exchange yield is 10 to 20%. With KYKNPYGF (also called KYKNPYGF) [MMP20-001], the peptide exchange yield is 10 to 20%.

In the case of QFYSTLPNTI (also called QFYSTLPNTI) [ROS-009], the peptide exchange yield was in the range of 10 to 20%. Regarding KDQPQVPCVF (also called KDQPQVPCVF) [NAT1-001], the peptide exchange yield was 10 to 20%. The same measure, in the same setting: under MFQEMLQRL (also called MFQEMLQRL) [TRIML2-001] stands 10 to 20%; under KVVSGFYYI (also called KVVSGFYYI) [CCR8-003], 10 to 20%; under RRLWAYVTI (also called RRLWAYVTI) [ITIH6-002], 10 to 20%. For the molecule MMALWSLLHL (also called MMALWSLLHL) [ZAC-001], the peptide exchange yield lay within 10 to 20%. For the molecule TYFFVANKY (also called TYFFVANKY) [MMP1-011], the peptide exchange yield lay in the range of 10 to 20%. For the molecule VTPKMLISF (also called VTPKMLISF) [OR5H8P-001], the peptide exchange yield was in the range of 10 to 20%. Same read-out and setting: under GTGKLFWVF (also called GTGKLFWVF) [BTL-003] stands 10 to 20%; under KLRALSILF (also called KLRALSILF) [PTP-039], 10 to 20%. Consider VYFVQYKIM (also called VYFVQYKIM) [IL22RA2-001], for which the peptide exchange yield lay within 10 to 20%. As for QHAWLPLTI (also called QHAWLPLTI) [TCL1A-004], the peptide exchange yield was in the range of 10 to 20%. For YQVAKGMEF (also called YQVAKGMEF) [FLT3-014], the peptide exchange yield was 10 to 20%.

The values are drawn from patent US20190352359A1 (IMMATICS BIOTECHNOLOGIES, published 2019).
